Patent publication US10434147B2, “Treatment type 2 diabetes mellitus patients” (Sanofi-Aventis Deutschland GmbH, priority 2015, dated 2019)

System: Patients with Type 2 Diabetes Insufficiently Controlled with Insulin Glargine with or without Metformin
Assay: Treatment-emergent adverse events, 26-week study
Type: in vivo, human
Conditions: in vivo
From the text: FIG. 6—Graphical study design. ^1 Insulin glargine should be injected subcutaneously once daily at dinner or breakfast time (according to patient's/investigators' preference). […] Meal used for insulin glulisine dosing should remain the same throughout the 26-week treatment period. ^4 Injection of insulin glulisine prior to breakfast, lunch and dinner.
Co-primary endpoints at 26 weeks were (1) non-inferiority (95% CI upper bound <0.4%) in HbA1c reduction with LIXI vs GLU-1 and (2) for LIXI vs GLU-3, either non-inferiority in HbA1c reduction (2a) OR superiority (one-sided α≤0.025) in body weight change (2b). FPG, PPG, IG dose, composite outcomes, AEs, and hypoglycemia were assessed.

Insulin Glulisine QD: insulin glulisine once daily, added to insulin glargine ± metformin (comparator arm)
Patients with treatment emergent SAE: Diabetic bullosis: 0 n (%)
Patients with treatment emergent SAE: Epigastric discomfort: 0 n (%)
Patients with treatment emergent SAE: Erysipelas: 0 n (%)
Patients with treatment emergent SAE: Gastric ulcer haemorrhage: 0 n (%)
Patients with treatment emergent SAE: Gastrointestinal disorders (SOC): 0 n (%)
Patients with treatment emergent SAE: Hepatic mass: 0 n (%)
Patients with treatment emergent SAE: Hepatobiliary disorders (SOC): 0 n (%)
Patients with treatment emergent SAE: Hypertension: 0 n (%)
Patients with treatment emergent SAE: Hypoglycaemia: 1 (0.3%) n (%)
Patients with treatment emergent SAE: Hypoglycaemic unconsciousness: 2 (0.7%) n (%)
Patients with treatment emergent SAE: Incisional hernia: 1 (0.3%) n (%)
Patients with treatment emergent SAE: Infections and infestations (SOC): 1 (0.3%) n (%)
Patients with treatment emergent SAE: Injury, poisoning and procedural complications (SOC): 4 (1.3%) n (%)
Patients with treatment emergent SAE: Invasive ductal breast carcinoma: 0 n (%)
Patients with treatment emergent SAE: Metabolism and nutrition disorders (SOC): 2 (0.7%) n (%)
Patients with treatment emergent SAE: Myocardial infarction: 1 (0.3%) n (%)
Patients with treatment emergent SAE: Myocardial ischaemia: 0 n (%)
Patients with treatment emergent SAE: Neoplasm malignant: 0 n (%)
Patients with treatment emergent SAE: Neoplasms benign, malignant and unspecified (incl cysts and polyps) (SOC): 0 n (%)
Patients with treatment emergent SAE: Nervous system disorders (SOC): 3 (1.0%) n (%)
Patients with treatment emergent SAE: Neuritis cranial: 1 (0.3%) n (%)
Patients with treatment emergent SAE: Pancreatic carcinoma metastatic: 0 n (%)
Patients with treatment emergent SAE: Penile infection: 0 n (%)
Patients with treatment emergent SAE: Renal and urinary disorders (SOC): 0 n (%)
Patients with treatment emergent SAE: Renal failure: 0 n (%)
Patients with treatment emergent SAE: Renal failure acute: 0 n (%)
Patients with treatment emergent SAE: Septic arthritis staphylococcal: 0 n (%)
Patients with treatment emergent SAE: Skin and subcutaneous tissue disorders (SOC): 0 n (%)
Patients with treatment emergent SAE: Skin ulcer haemorrhage: 0 n (%)
Patients with treatment emergent SAE: Uterine cancer: 0 n (%)
Patients with treatment emergent SAE: Vascular disorders (SOC): 0 n (%)
TEAE leading to permanent treatment discontinuation: Abdominal pain: 0 n (%)
TEAE leading to permanent treatment discontinuation: Any class: 2 (0.7%) n (%)
TEAE leading to permanent treatment discontinuation: Ascites: 0 n (%)
TEAE leading to permanent treatment discontinuation: Blood and lymphatic system disorders (SOC): 0 n (%)
TEAE leading to permanent treatment discontinuation: Blood glucose decreased: 1 (0.3%) n (%)
TEAE leading to permanent treatment discontinuation: Cardiac disorders (SOC): 0 n (%)
TEAE leading to permanent treatment discontinuation: Cardiac failure chronic: 0 n (%)
TEAE leading to permanent treatment discontinuation: Cough: 0 n (%)
TEAE leading to permanent treatment discontinuation: Decreased appetite: 0 n (%)
TEAE leading to permanent treatment discontinuation: Dehydration: 0 n (%)
TEAE leading to permanent treatment discontinuation: Diabetic bullosis: 0 n (%)
TEAE leading to permanent treatment discontinuation: Diarrhoea: 0 n (%)
TEAE leading to permanent treatment discontinuation: Dyspepsia: 0 n (%)
TEAE leading to permanent treatment discontinuation: Epigastric discomfort: 0 n (%)
TEAE leading to permanent treatment discontinuation: Gastric ulcer haemorrhage: 0 n (%)
TEAE leading to permanent treatment discontinuation: Gastrointestinal disorders (SOC): 0 n (%)
TEAE leading to permanent treatment discontinuation: Headache: 0 n (%)
TEAE leading to permanent treatment discontinuation: Hepatic mass: 0 n (%)
TEAE leading to permanent treatment discontinuation: Hepatobiliary disorders (SOC): 0 n (%)
TEAE leading to permanent treatment discontinuation: Hot flush: 0 n (%)
TEAE leading to permanent treatment discontinuation: Hypoglycaemia: 0 n (%)
TEAE leading to permanent treatment discontinuation: Immune system disorders (SOC): 0 n (%)
TEAE leading to permanent treatment discontinuation: Invasive ductal breast carcinoma: 0 n (%)
TEAE leading to permanent treatment discontinuation: Investigations (SOC): 1 (0.3%) n (%)
TEAE leading to permanent treatment discontinuation: Lymphadenopathy: 0 n (%)
TEAE leading to permanent treatment discontinuation: Metabolism and nutrition disorders (SOC): 0 n (%)
TEAE leading to permanent treatment discontinuation: Metastases to liver: 0 n (%)
TEAE leading to permanent treatment discontinuation: Metastases to peritoneum: 0 n (%)
TEAE leading to permanent treatment discontinuation: Nasal congestion: 0 n (%)
TEAE leading to permanent treatment discontinuation: Nausea: 0 n (%)
TEAE leading to permanent treatment discontinuation: Neoplasms benign, malignant and unspecified (incl cysts and polyps) (SOC): 0 n (%)
TEAE leading to permanent treatment discontinuation: Nervous system disorders (SOC): 1 (0.3%) n (%)
TEAE leading to permanent treatment discontinuation: Pancreatic carcinoma metastatic: 0 n (%)
TEAE leading to permanent treatment discontinuation: Renal and urinary disorders (SOC): 0 n (%)
TEAE leading to permanent treatment discontinuation: Renal failure: 0 n (%)
TEAE leading to permanent treatment discontinuation: Respiratory, thoracic and mediastinal disorders (SOC): 0 n (%)
TEAE leading to permanent treatment discontinuation: Seasonal allergy: 0 n (%)
TEAE leading to permanent treatment discontinuation: Skin and subcutaneous tissue disorders (SOC): 0 n (%)
TEAE leading to permanent treatment discontinuation: Skin ulcer haemorrhage: 0 n (%)
TEAE leading to permanent treatment discontinuation: Thrombosis: 0 n (%)
TEAE leading to permanent treatment discontinuation: Tremor: 1 (0.3%) n (%)
TEAE leading to permanent treatment discontinuation: Vascular disorders (SOC): 0 n (%)
TEAE leading to permanent treatment discontinuation: Vomiting: 0 n (%)
Total number of patients with any event adjudicated as pancreatitis by PSAC: 0 n (%)
